# Patent publication US10925971B2, “Methods of treating PRLR positive breast cancer” (Regeneron Pharmaceuticals, Inc., priority 2016, dated 2021)
# T1: native PRLR expressing T47D cells (Homo sapiens, UniProt P16471)
# T1 construct: a native PRLR expressing cell line (T47D); endogenous in cells; host or cells: T47D
# T1 sequence (P16471 25-622): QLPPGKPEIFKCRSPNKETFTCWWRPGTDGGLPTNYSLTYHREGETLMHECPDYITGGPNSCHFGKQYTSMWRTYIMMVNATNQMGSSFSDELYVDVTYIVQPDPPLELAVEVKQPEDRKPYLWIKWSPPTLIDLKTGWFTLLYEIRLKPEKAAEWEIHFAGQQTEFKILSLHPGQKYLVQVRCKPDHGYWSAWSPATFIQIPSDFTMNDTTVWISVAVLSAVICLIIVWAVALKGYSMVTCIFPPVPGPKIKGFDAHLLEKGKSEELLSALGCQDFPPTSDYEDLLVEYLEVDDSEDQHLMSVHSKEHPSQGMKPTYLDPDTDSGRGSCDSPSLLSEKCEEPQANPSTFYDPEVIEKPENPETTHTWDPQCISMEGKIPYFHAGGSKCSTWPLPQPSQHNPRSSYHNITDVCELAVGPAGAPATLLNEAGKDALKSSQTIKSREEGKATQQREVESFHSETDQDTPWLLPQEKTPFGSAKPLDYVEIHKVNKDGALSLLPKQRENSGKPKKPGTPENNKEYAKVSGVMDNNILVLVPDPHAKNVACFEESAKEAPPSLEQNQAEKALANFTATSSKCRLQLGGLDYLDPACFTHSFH
# T2: human PRLR on HEK293/hPRLR cells (Homo sapiens, UniProt P16471)
# T2 construct: HA; expressed in transfected cells; host or cells: HEK293
# T2 sequence (P16471 25-622): T1 sequence (P16471 25-622)
# T3: monkey PRLR on HEK293/mfPRLR cells (Macaca fascicularis, UniProt A0A2K5WXK1)
# T3 construct: HA; expressed in transfected cells; host or cells: HEK293
# T3 sequence (A0A2K5WXK1 25-619): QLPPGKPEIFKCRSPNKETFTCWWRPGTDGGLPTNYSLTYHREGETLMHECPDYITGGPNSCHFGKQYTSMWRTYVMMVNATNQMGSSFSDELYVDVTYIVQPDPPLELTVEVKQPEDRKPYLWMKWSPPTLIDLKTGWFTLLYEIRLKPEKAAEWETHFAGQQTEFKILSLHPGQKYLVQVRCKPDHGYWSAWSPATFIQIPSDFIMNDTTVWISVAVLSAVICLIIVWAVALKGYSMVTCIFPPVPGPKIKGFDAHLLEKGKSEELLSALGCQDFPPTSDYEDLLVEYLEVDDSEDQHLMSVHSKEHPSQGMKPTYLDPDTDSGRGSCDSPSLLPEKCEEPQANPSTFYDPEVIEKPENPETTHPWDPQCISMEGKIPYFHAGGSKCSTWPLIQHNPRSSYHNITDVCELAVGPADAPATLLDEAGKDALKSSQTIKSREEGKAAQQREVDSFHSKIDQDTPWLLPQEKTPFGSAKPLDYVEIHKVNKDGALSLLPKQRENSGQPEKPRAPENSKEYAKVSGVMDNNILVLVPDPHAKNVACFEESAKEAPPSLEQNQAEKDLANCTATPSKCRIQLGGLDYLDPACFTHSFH
# T4: mouse PRLR on HEK293/mPRLR cells (Mus musculus, UniProt Q08501)
# T4 construct: HA; expressed in transfected cells; host or cells: HEK293
# T4 sequence (Q08501 20-608): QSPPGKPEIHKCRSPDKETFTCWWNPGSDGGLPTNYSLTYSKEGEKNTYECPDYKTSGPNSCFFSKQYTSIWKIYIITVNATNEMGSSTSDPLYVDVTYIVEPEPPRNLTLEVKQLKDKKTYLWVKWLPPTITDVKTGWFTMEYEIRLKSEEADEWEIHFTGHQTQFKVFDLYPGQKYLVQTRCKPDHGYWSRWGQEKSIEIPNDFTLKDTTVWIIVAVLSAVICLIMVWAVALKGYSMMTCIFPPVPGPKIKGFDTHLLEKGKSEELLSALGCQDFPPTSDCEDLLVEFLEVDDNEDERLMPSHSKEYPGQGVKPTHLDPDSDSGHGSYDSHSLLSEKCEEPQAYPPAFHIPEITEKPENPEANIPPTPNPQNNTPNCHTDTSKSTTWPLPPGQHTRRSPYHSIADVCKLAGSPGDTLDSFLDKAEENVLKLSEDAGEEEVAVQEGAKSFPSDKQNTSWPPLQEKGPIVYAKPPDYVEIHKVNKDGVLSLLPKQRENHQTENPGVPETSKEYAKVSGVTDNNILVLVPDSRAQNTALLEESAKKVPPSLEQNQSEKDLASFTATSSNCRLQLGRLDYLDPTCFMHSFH
# B1: H1H6801P: fully human anti-PRLR antibody, human IgG1 Fc; HCVR/LCVR SEQ ID NOs 210/218 (antibody, V domains shown)
# VH: QVQLQQSGPGLVKPSQTLSLTCVISGDSVSSNTAWNWVRQSPSRGLEWLGRTYYRSKWYNDYAVSVKSRITINPDTSKNQFSLLMNSVTPEDTAVYYCARVVRGLNYFDYWGQGTLVTVSS
# VL: DIVMTQSPDSLAVSLGERATINCKSSQSVLYNSNNKNYLAWYQQKPGQPPKLLIYWSSSRESGVPDRFSGSGSGTDFTLTISGLQAEDVAIYYCQQYSTIPYTFGQGTKLEIK
# B2: H1H6804P: fully human anti-PRLR antibody, human IgG1 Fc; HCVR/LCVR SEQ ID NOs 242/250 (antibody, V domains shown)
# VH: QVTLKESGPVLVKPTQTLSLTCTVSGFSLSDAGMGVSWIRQPPGKALEWLAHIFSNDGKSYSTSLKSRLTISKDTSKRQVVLTMTNMDPVDTATYYCARIRTGTYSLYLDYWGQGTLVTVSS
# VL: DIQMTQSPSSLSASVGDRVTITCRASQSINSYLNWYQQKPGKAPKLLLYFASSLQSGVPSRFSGSGSGTDFTLTISSLQPEDFASYYCQESYSTPWTFGQGTKVEIK
# B3: H1H6803P: fully human anti-PRLR antibody, human IgG1 Fc; HCVR/LCVR SEQ ID NOs 226/234 (antibody, V domains shown)
# VH: EVQLVESGGGVVRPGGSLRLSCAASGFKFDDYGMTWVRHVPGKGLEWVSGINWNGGRTGYTDSVKGRFTISRDNAKNSLYLQMNSLRAEDTALYHCAGARRDAFDIWGQGTMVTVSS
# VL: DIQMTQSPSSLSASIGDRVTITCRASQNIIKYLNWYQQNAGKAPKLLIYTASSLQSGVPSRFSGSGSGTDFTLTISSLQPEDFATYYCQQSSSSPYTFGQGTKLEIK
# Molecular target: T5, dimeric human PRLR (hPRLR.mFc; SEQ ID NO:402) (Homo sapiens, UniProt P16471)
# T5 construct: dimeric (hPRLR.mFc)
# Assay: Surface plasmon resonance (Biacore T200), antibody-capture format
# Format: binding
# Settings: 25° C., analyte hPRLR.mFc
# How it was run: (§1)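 Antibodies (human IgG1 Fc) captured on an anti-human Fc sensor surface; soluble monomeric (.mmh) or dimeric (.mFc) PRLR injected as analyte. ka and kd obtained by fitting to a 1:1 binding model.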
# T5 sequence (P16471 with tags, fused parts or gaps): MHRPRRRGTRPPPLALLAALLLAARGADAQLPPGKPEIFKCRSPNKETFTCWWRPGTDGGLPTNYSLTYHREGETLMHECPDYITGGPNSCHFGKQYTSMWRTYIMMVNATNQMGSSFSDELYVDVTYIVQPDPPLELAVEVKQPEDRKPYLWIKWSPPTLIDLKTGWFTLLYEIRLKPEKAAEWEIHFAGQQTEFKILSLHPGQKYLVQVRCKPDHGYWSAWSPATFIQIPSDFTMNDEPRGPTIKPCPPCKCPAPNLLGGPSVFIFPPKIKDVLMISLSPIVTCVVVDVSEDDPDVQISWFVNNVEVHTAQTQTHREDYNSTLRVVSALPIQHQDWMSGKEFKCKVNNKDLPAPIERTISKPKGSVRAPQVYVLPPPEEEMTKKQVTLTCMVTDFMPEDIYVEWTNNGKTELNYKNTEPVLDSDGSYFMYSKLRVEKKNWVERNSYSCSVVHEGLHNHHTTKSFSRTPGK
Molecule,ka,kd
B1,675000 M/s,0.000109 s⁻¹
B2,451000 M/s,8.69e-05 s⁻¹
B3,104000 M/s,6.29e-05 s⁻¹

# Same assay, conditions: 37° C., analyte hPRLR.mFc
Molecule,ka,kd
B1,793000 M/s,0.000221 s⁻¹
B2,554000 M/s,0.000205 s⁻¹
B3,134000 M/s,6.2e-05 s⁻¹

# Molecular target: T6, monomeric human PRLR (hPRLR.mmh; SEQ ID NO:401) (Homo sapiens, UniProt P16471)
# T6 construct: soluble monomeric (hPRLR.mmh); mmh (myc-myc-hexahistidine) (C)
# Assay: as above
# Format: binding
# Settings: 25° C., analyte hPRLR.mmh
# How it was run: as §1
# T6 sequence (P16471 with tags, fused parts or gaps): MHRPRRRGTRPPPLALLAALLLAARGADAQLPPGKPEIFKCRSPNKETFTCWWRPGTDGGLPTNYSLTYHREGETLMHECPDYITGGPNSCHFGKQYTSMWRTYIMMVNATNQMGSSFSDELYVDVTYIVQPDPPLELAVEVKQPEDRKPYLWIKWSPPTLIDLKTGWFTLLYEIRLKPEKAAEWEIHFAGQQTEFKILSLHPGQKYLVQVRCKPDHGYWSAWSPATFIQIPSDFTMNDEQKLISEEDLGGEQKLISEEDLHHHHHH
Molecule,ka,kd
B1,846000 M/s,0.000756 s⁻¹
B2,453000 M/s,0.000634 s⁻¹
B3,82400 M/s,0.000137 s⁻¹

# Same assay, conditions: 37° C., analyte hPRLR.mmh
Molecule,ka,kd
B1,951000 M/s,0.00441 s⁻¹
B2,607000 M/s,0.00385 s⁻¹
B3,129000 M/s,0.000364 s⁻¹

# Test system: Macaca fascicularis PRLR (mfPRLR.mmh; SEQ ID NO:403)
# Assay: as above
# Format: binding
# Settings: 25° C., analyte mfPRLR.mmh
# How it was run: as §1
# Macaca fascicularis PRLR (mfPRLR.mmh; SEQ ID NO:403), sequence (as listed by the source): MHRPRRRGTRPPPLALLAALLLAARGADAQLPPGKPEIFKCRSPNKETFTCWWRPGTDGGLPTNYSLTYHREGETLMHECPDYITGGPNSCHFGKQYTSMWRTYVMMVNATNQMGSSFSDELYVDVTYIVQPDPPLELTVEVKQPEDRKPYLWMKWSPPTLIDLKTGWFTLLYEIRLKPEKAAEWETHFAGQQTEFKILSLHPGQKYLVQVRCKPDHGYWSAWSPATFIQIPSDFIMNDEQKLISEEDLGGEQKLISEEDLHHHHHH
Molecule,ka,kd
B1,657000 M/s,0.00123 s⁻¹
B2,331000 M/s,0.000657 s⁻¹
B3,62100 M/s,0.000209 s⁻¹

# Same assay, conditions: 37° C., analyte mfPRLR.mmh
Molecule,ka,kd
B1,711000 M/s,0.00771 s⁻¹
B2,455000 M/s,0.00426 s⁻¹
B3,87300 M/s,0.000636 s⁻¹

# Molecular target: T1, native PRLR expressing T47D cells
# Assay: FACS cell surface binding
# Settings: not given
# How it was run: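 Flow cytometry on native PRLR-expressing T47D cells, alongside PRLR-overexpressing and parental HEK293 lines. Cells (1×10^5) incubated with antibody at 10 μg/ml, 30 min on ice, then PE anti-human secondary; binding reported as MFI fold over isotype control.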
row,Molecule,FACS Cell Binding
1,B1,45 Fold Above Background
2,B2,34 Fold Above Background
3,B3,39 Fold Above Background

# Molecular target: T2, human PRLR on HEK293/hPRLR cells
# Assay: FACS cell surface binding
# Settings: not given
# How it was run: (§2)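 HEK293 cells stably transfected with HA-tagged human, cynomolgus or mouse PRLR (G418-selected), or parental HEK293, were stained with 10 μg/ml antibody for 30 min on ice. Binding was then detected with 10 μg/ml PE anti-human secondary for 30 min on ice, and MFI was expressed as fold over isotype control.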
row,Molecule,FACS Cell Binding
1,B1,47 Fold Above Background
2,B2,1 Fold Above Background
3,B3,39 Fold Above Background

# Molecular target: T3, monkey PRLR on HEK293/mfPRLR cells
# Assay: FACS cell surface binding
# Settings: not given
# How it was run: as §2
row,Molecule,FACS Cell Binding
1,B1,88 Fold Above Background
2,B2,29 Fold Above Background
3,B3,28 Fold Above Background

# Molecular target: T4, mouse PRLR on HEK293/mPRLR cells
# Assay: FACS cell surface binding
# Settings: not given
# How it was run: as §2
row,Molecule,FACS Cell Binding
1,B1,56 Fold Above Background
2,B2,1 Fold Above Background
3,B3,1 Fold Above Background

# Test system: HEK293 parental cells
# Assay: FACS cell surface binding
# Parameters: species or system human
# Settings: not given
# How it was run: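 Flow cytometry: 1×10^5 cells/sample; primary Ab 10 μg/ml, 30 min on ice; 2 washes; PE anti-human 2° 10 μg/ml, 30 min on ice. Cells were HEK293 stably expressing HA-tagged PRLR of the given species, or untransfected HEK293. Readout was MFI fold over isotype.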
row,Molecule,FACS Cell Binding
1,B1,7 Fold Above Background
2,B2,1 Fold Above Background
3,B3,1 Fold Above Background
